Patent US20140087995A1 (published 2014)
Numbered stars: 1 amine (or outer) side, 2 acyl side, 3 side chain; on linkers, the order of the positions; unused ones are H or OH. Bridge positions count the residues as written; N and C are the ends. Side chains are listed from the residue outwards. Ends that are not written are not given here. * marks the point of attachment. C20 diacid = O=C(O)CCCCCCCCCCCCCCCCCCC(=O)*; γGlu = O=C(O)[C@H](CCC(=O)[*:2])N[*:1]; AEEA = NCCOCCOCC(=O)O

Legend:
rat calcitonin receptor [1] = target: T1, rat calcitonin receptor (rat, UniProt P32214 25-516); test: ratio of binding IC50 at rat calcitonin receptor to IC50 at rat amylin receptor (reference)
T1 construct: whole, on cells; Used as membranes prepared from the transfected cells; also called rCTR; rCT
T1 sequence (looked up): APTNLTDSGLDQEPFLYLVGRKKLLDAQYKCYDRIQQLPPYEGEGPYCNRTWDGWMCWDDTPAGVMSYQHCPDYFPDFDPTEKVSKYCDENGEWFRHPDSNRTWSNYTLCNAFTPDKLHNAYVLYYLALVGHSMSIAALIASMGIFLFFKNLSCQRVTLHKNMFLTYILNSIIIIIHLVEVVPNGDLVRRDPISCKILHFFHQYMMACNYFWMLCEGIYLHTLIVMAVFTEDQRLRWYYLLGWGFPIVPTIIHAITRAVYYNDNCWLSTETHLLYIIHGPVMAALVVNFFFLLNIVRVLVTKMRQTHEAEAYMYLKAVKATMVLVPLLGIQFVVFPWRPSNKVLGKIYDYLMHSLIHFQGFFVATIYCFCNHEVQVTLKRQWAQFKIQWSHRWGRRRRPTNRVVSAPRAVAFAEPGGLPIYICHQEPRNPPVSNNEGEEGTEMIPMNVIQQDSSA

rat calcitonin receptor [2] = target: T1, rat calcitonin receptor; test: SPA competition with 125I-calcitonin, membranes with rat calcitonin receptor (Assay VIII)
[3] = target: T2, human calcitonin receptor (human, UniProt P30988 25-474); test: ratio of binding IC50 at human calcitonin receptor to IC50 at human amylin receptor (reference)
T2 construct: whole, on cells; Used as membranes prepared from the transfected cells; also called hCTR; hCT
T2 sequence (looked up): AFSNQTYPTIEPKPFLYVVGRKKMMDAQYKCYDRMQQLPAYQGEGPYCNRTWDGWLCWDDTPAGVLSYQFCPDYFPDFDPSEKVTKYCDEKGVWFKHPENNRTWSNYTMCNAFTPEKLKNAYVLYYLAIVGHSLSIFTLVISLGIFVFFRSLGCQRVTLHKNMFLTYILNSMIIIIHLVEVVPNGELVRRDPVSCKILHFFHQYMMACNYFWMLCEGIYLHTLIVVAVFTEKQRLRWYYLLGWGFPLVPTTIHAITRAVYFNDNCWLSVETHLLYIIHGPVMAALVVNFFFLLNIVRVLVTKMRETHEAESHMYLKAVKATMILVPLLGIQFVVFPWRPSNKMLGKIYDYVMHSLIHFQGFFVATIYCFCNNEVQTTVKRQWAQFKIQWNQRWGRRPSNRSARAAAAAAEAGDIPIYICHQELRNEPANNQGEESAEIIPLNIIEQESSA
How it was run: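 Membranes (35 ng/μL final) + SPA beads, 50 mM Hepes pH 7.4 buffer with 1 mM CaCl2, 5 mM MgCl₂, 0.1% OA, 0.02% Tween20; 120 min, 25° C, shaking; centrifuged, counted; IC₅₀ by one-site binding competition.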

B1: N^ε1-[2-[2-[2-(19-carboxynonadecanoylamino)ethoxy]ethoxy]acetyl]-[His14,Arg17,Pro21,Pro27]-h-amylin (peptide)
peptide: K([AEEA-C20 diacid])CNTATCATQRLAHFLRHSSPNFGAIPSSTNVGSNTY-NH2
modifications: disulfide 2-7; N-terminus assumed
SMILES: CC[C@H](C)[C@H](NC(=O)[C@H](C)NC(=O)CNC(=O)[C@H](Cc1ccccc1)NC(=O)[C@H](CC(N)=O)NC(=O)[C@@H]1CCCN1C(=O)[C@H](CO)NC(=O)[C@H](CO)NC(=O)[C@H](Cc1c[nH]cn1)NC(=O)[C@H](CCCNC(=N)N)NC(=O)[C@H](CC(C)C)NC(=O)[C@H](Cc1ccccc1)NC(=O)[C@H](Cc1c[nH]cn1)NC(=O)[C@H](C)NC(=O)[C@H](CC(C)C)NC(=O)[C@H](CCCNC(=N)N)NC(=O)[C@H](CCC(N)=O)NC(=O)[C@@H](NC(=O)[C@H](C)NC(=O)[C@@H]1CSSC[C@H](NC(=O)[C@@H](N)CCCCNC(=O)COCCOCCNC(=O)CCCCCCCCCCCCCCCCCCC(=O)O)C(=O)N[C@@H](CC(N)=O)C(=O)N[C@@H]([C@@H](C)O)C(=O)N[C@@H](C)C(=O)N[C@@H]([C@@H](C)O)C(=O)N1)[C@@H](C)O)C(=O)N1CCC[C@H]1C(=O)N[C@@H](CO)C(=O)N[C@@H](CO)C(=O)N[C@H](C(=O)N[C@@H](CC(N)=O)C(=O)N[C@H](C(=O)NCC(=O)N[C@@H](CO)C(=O)N[C@@H](CC(N)=O)C(=O)N[C@H](C(=O)N[C@@H](Cc1ccc(O)cc1)C(N)=O)[C@@H](C)O)C(C)C)[C@@H](C)O
notes: Analogue of human amylin; disulfide and C-terminal amide as told for h-amylin; also called compound 90
Ratio rCT/rAmylin binding (rat calcitonin receptor [1]): 74.1
IC50 (rat calcitonin receptor [2]): 18.2 nM
Ratio hCT/hAmylin binding [3]: 42.2

B2: N^ε1-[(4S)-4-carboxy-4-[[(4S)-4-carboxy-4-(19-carboxynonadecanoylamino)butanoyl]amino]butanoyl]-[Glu14,Arg17,Pro21,Pro27,Arg34]-h-amylin (peptide)
peptide: K([γGlu-γGlu-C20 diacid])CNTATCATQRLAEFLRHSSPNFGAIPSSTNVGRNTY-NH2
modifications: disulfide 2-7; N-terminus assumed
SMILES: CC[C@H](C)[C@H](NC(=O)[C@H](C)NC(=O)CNC(=O)[C@H](Cc1ccccc1)NC(=O)[C@H](CC(N)=O)NC(=O)[C@@H]1CCCN1C(=O)[C@H](CO)NC(=O)[C@H](CO)NC(=O)[C@H](Cc1c[nH]cn1)NC(=O)[C@H](CCCNC(=N)N)NC(=O)[C@H](CC(C)C)NC(=O)[C@H](Cc1ccccc1)NC(=O)[C@H](CCC(=O)O)NC(=O)[C@H](C)NC(=O)[C@H](CC(C)C)NC(=O)[C@H](CCCNC(=N)N)NC(=O)[C@H](CCC(N)=O)NC(=O)[C@@H](NC(=O)[C@H](C)NC(=O)[C@@H]1CSSC[C@H](NC(=O)[C@@H](N)CCCCNC(=O)CC[C@H](NC(=O)CC[C@H](NC(=O)CCCCCCCCCCCCCCCCCCC(=O)O)C(=O)O)C(=O)O)C(=O)N[C@@H](CC(N)=O)C(=O)N[C@@H]([C@@H](C)O)C(=O)N[C@@H](C)C(=O)N[C@@H]([C@@H](C)O)C(=O)N1)[C@@H](C)O)C(=O)N1CCC[C@H]1C(=O)N[C@@H](CO)C(=O)N[C@@H](CO)C(=O)N[C@H](C(=O)N[C@@H](CC(N)=O)C(=O)N[C@H](C(=O)NCC(=O)N[C@@H](CCCNC(=N)N)C(=O)N[C@@H](CC(N)=O)C(=O)N[C@H](C(=O)N[C@@H](Cc1ccc(O)cc1)C(N)=O)[C@@H](C)O)C(C)C)[C@@H](C)O
notes: Analogue of human amylin; disulfide and C-terminal amide as told for h-amylin; also called compound 88
Ratio rCT/rAmylin binding (rat calcitonin receptor [1]): 84.9
IC50 (rat calcitonin receptor [2]): 196 nM
Ratio hCT/hAmylin binding [3]: 46.5

B3: N^ε1-[(4S)-4-carboxy-4-[[(4S)-4-carboxy-4-(19-carboxynonadecanoylamino)butanoyl]amino]butanoyl]-[Glu14,Arg17,Pro21,Pro27,His34]-h-amylin (peptide)
peptide: K([γGlu-γGlu-C20 diacid])CNTATCATQRLAEFLRHSSPNFGAIPSSTNVGHNTY-NH2
modifications: disulfide 2-7; N-terminus assumed
SMILES: CC[C@H](C)[C@H](NC(=O)[C@H](C)NC(=O)CNC(=O)[C@H](Cc1ccccc1)NC(=O)[C@H](CC(N)=O)NC(=O)[C@@H]1CCCN1C(=O)[C@H](CO)NC(=O)[C@H](CO)NC(=O)[C@H](Cc1c[nH]cn1)NC(=O)[C@H](CCCNC(=N)N)NC(=O)[C@H](CC(C)C)NC(=O)[C@H](Cc1ccccc1)NC(=O)[C@H](CCC(=O)O)NC(=O)[C@H](C)NC(=O)[C@H](CC(C)C)NC(=O)[C@H](CCCNC(=N)N)NC(=O)[C@H](CCC(N)=O)NC(=O)[C@@H](NC(=O)[C@H](C)NC(=O)[C@@H]1CSSC[C@H](NC(=O)[C@@H](N)CCCCNC(=O)CC[C@H](NC(=O)CC[C@H](NC(=O)CCCCCCCCCCCCCCCCCCC(=O)O)C(=O)O)C(=O)O)C(=O)N[C@@H](CC(N)=O)C(=O)N[C@@H]([C@@H](C)O)C(=O)N[C@@H](C)C(=O)N[C@@H]([C@@H](C)O)C(=O)N1)[C@@H](C)O)C(=O)N1CCC[C@H]1C(=O)N[C@@H](CO)C(=O)N[C@@H](CO)C(=O)N[C@H](C(=O)N[C@@H](CC(N)=O)C(=O)N[C@H](C(=O)NCC(=O)N[C@@H](Cc1c[nH]cn1)C(=O)N[C@@H](CC(N)=O)C(=O)N[C@H](C(=O)N[C@@H](Cc1ccc(O)cc1)C(N)=O)[C@@H](C)O)C(C)C)[C@@H](C)O
notes: Analogue of human amylin; disulfide and C-terminal amide as told for h-amylin; also called compound 87
Ratio rCT/rAmylin binding (rat calcitonin receptor [1]): 45.6
IC50 (rat calcitonin receptor [2]): 94.5 nM
Ratio hCT/hAmylin binding [3]: 35.6

B4: N^ε1-[(4S)-4-carboxy-4-[[(4S)-4-carboxy-4-(19-carboxynonadecanoylamino)butanoyl]amino]butanoyl]-[Glu14,Arg17,Pro21,Pro27,Arg35]-h-amylin (peptide)
peptide: K([γGlu-γGlu-C20 diacid])CNTATCATQRLAEFLRHSSPNFGAIPSSTNVGSRTY-NH2
modifications: disulfide 2-7; N-terminus assumed
SMILES: CC[C@H](C)[C@H](NC(=O)[C@H](C)NC(=O)CNC(=O)[C@H](Cc1ccccc1)NC(=O)[C@H](CC(N)=O)NC(=O)[C@@H]1CCCN1C(=O)[C@H](CO)NC(=O)[C@H](CO)NC(=O)[C@H](Cc1c[nH]cn1)NC(=O)[C@H](CCCNC(=N)N)NC(=O)[C@H](CC(C)C)NC(=O)[C@H](Cc1ccccc1)NC(=O)[C@H](CCC(=O)O)NC(=O)[C@H](C)NC(=O)[C@H](CC(C)C)NC(=O)[C@H](CCCNC(=N)N)NC(=O)[C@H](CCC(N)=O)NC(=O)[C@@H](NC(=O)[C@H](C)NC(=O)[C@@H]1CSSC[C@H](NC(=O)[C@@H](N)CCCCNC(=O)CC[C@H](NC(=O)CC[C@H](NC(=O)CCCCCCCCCCCCCCCCCCC(=O)O)C(=O)O)C(=O)O)C(=O)N[C@@H](CC(N)=O)C(=O)N[C@@H]([C@@H](C)O)C(=O)N[C@@H](C)C(=O)N[C@@H]([C@@H](C)O)C(=O)N1)[C@@H](C)O)C(=O)N1CCC[C@H]1C(=O)N[C@@H](CO)C(=O)N[C@@H](CO)C(=O)N[C@H](C(=O)N[C@@H](CC(N)=O)C(=O)N[C@H](C(=O)NCC(=O)N[C@@H](CO)C(=O)N[C@@H](CCCNC(=N)N)C(=O)N[C@H](C(=O)N[C@@H](Cc1ccc(O)cc1)C(N)=O)[C@@H](C)O)C(C)C)[C@@H](C)O
notes: Analogue of human amylin; disulfide and C-terminal amide as told for h-amylin; also called compound 89
Ratio rCT/rAmylin binding (rat calcitonin receptor [1]): 48.8
IC50 (rat calcitonin receptor [2]): 115 nM
Ratio hCT/hAmylin binding [3]: 28

B5: N^ε1-[(4S)-4-carboxy-4-(19-carboxynonadecanoylamino)butanoyl]-[His14,Arg17,Pro21,Pro27]-h-amylin (peptide)
peptide: K([γGlu-C20 diacid])CNTATCATQRLAHFLRHSSPNFGAIPSSTNVGSNTY-NH2
modifications: disulfide 2-7; N-terminus assumed
SMILES: CC[C@H](C)[C@H](NC(=O)[C@H](C)NC(=O)CNC(=O)[C@H](Cc1ccccc1)NC(=O)[C@H](CC(N)=O)NC(=O)[C@@H]1CCCN1C(=O)[C@H](CO)NC(=O)[C@H](CO)NC(=O)[C@H](Cc1c[nH]cn1)NC(=O)[C@H](CCCNC(=N)N)NC(=O)[C@H](CC(C)C)NC(=O)[C@H](Cc1ccccc1)NC(=O)[C@H](Cc1c[nH]cn1)NC(=O)[C@H](C)NC(=O)[C@H](CC(C)C)NC(=O)[C@H](CCCNC(=N)N)NC(=O)[C@H](CCC(N)=O)NC(=O)[C@@H](NC(=O)[C@H](C)NC(=O)[C@@H]1CSSC[C@H](NC(=O)[C@@H](N)CCCCNC(=O)CC[C@H](NC(=O)CCCCCCCCCCCCCCCCCCC(=O)O)C(=O)O)C(=O)N[C@@H](CC(N)=O)C(=O)N[C@@H]([C@@H](C)O)C(=O)N[C@@H](C)C(=O)N[C@@H]([C@@H](C)O)C(=O)N1)[C@@H](C)O)C(=O)N1CCC[C@H]1C(=O)N[C@@H](CO)C(=O)N[C@@H](CO)C(=O)N[C@H](C(=O)N[C@@H](CC(N)=O)C(=O)N[C@H](C(=O)NCC(=O)N[C@@H](CO)C(=O)N[C@@H](CC(N)=O)C(=O)N[C@H](C(=O)N[C@@H](Cc1ccc(O)cc1)C(N)=O)[C@@H](C)O)C(C)C)[C@@H](C)O
notes: Analogue of human amylin; disulfide and C-terminal amide as told for h-amylin; also called compound 70
Ratio rCT/rAmylin binding (rat calcitonin receptor [1]): 96.5
IC50 (rat calcitonin receptor [2]): 34.2 nM
Ratio hCT/hAmylin binding [3]: 60.8
